Assay [1] has as its target AM receptor (AM-R) on human tumor cell lines (human). Kind of assay: cell-based or functional assay.
For assay [2] the target is unchanged. Briefly: receptor binding on MCF-7 cells.
The target is the same in assay [3]. Briefly: displacement of 125I-AM from MCF-7 cells by unlabelled AM. On the technique in general: Displacement assays read how much labelled ligand stays bound in the presence of the test substance.
For assay [4] the target is unchanged. Briefly: 125I-AM (0.2 nM per 5×10^5 cells) binding to NCI-H1264 cells.

Ends that are not written are not given here.

B1: adrenomedullin (AM) (peptide, UniProt P35318 95-146, looked up)
peptide: YRQSMNNFQGLRSFGCRFGTCTVQKLAHQIYQFTDKDKDNVAPRSKISPQGY-NH2
modifications: ends and bridges not checked; also: 125I-labelled as tracer in receptor assays
The term Kd denotes the concentration at which binding is half-saturated. The low end stands for higher affinity, the high end for lower affinity. In general, IC50 refers to the concentration at which inhibition is half-maximal. Lower therefore signals higher potency. In assay [1], B1 returned an increase in cellular cAMP (ED50) of 5 nM and a maximum elevation of cellular cAMP (fold of control) of 3. Besides, the Kd in assay [2] was determined as 2 nM. The 50% inhibitory concentration (IC50) in assay [3] worked out at 10 nM. The radioactivity bound (cpm) in assay [4] was determined as 2260 cpm.
